Numbering of substitutions follows the chain as printed. Names may count otherwise.
B1: Amuc_1100 (31-317, Y289A): Amuc_1100 (31-317) mutant protein with single point mutation Y289A, numbering relative to SEQ ID NO: 1 (protein)
chain: MIVNSKRSELDKKISIAAKEIKSANAAEITPSRSSNEELEKELNRYAKAVGSLETAYKPFLASSALVPTTPTAFQNELKTFRDSLISSCKKKNILITDTSSWLGFQVYSTQAPSVQAASTLGFELKAINSLVNKLAECGLSKFIKVYRPQLPIETPANNPEESDEADQAPWTPMPLEIAFQGDRESVLKAMNAITGMQDYLFTVNSIRIRNERMMPPPIANPAAAKPAAAQPATGAASLTPADEAAAPAAPAIQQVIKPAMGKEQVFVQVSLNLVHFNQPKAQEPSED
B2: Amuc_1100 (31-317): Naturally-occurring fragment (residues 31-317) of Akkermansia muciniphila outer-membrane protein Amuc_1100; recombinant protein (protein)
chain: B1 chain with A260Y
B3: secreted Amuc_1100 (31-317) from genetically engineered EcN: Amuc_1100 protein isolated from culture media of EcN strain CBT1108 by his-tag antibody resin, endotoxin removed (protein)
chain: B1 chain with A260Y

Columns and labels:
[1] = test system: proteases trypsin and α-chymotrypsin; assay: Protease digestion stability (trypsin and α-chymotrypsin, SDS-PAGE, Coomassie blue); format: in vitro ADME; conditions: trypsin 0.01 mg/ml and α-chymotrypsin 0.01 mg/ml, 37° C., 30 min; versus wild type; FIG. 3A
Method: Recombinant Amuc_1100 wild type (WT) and mutant protein are digested by proteases trypsin (0.01 mg/ml) and α-chymotrypsin (0.01 mg/ml) at […] for 30 min. The samples are subjected to SDS-PAGE gel electrophoresis and Coomassie blue staining. Lane A: Amuc_1100 (31-317, Y289A) without proteases; Lane B: Amuc_1100 (31-317, Y289A) with proteases; Lane C: Amuc_1100 (31-317, WT) without proteases; Lane D: Amuc_1100 (31-317, WT) with proteases; MW: molecular weight marker (KD).)
Some mutants of the […] (31-317) may reduce protein degradation by proteases. The amino acid sequence (SEQ ID NO: 146) and nucleotide sequence (SEQ ID NO: 147) of Amuc_1100 (31-317, Y289A) with 6×His tag at the C-terminus expressed by the plasmid described above (FIG. 1) were shown in FIG. 2. The recombinant Amuc_1100 (31-317) protein and mutant protein (31-317, Y289A) were digested by proteases trypsin (0.01 mg/ml) and α-chymotrypsin (0.01 mg/ml) at 37° C. for 30 min. The samples were then subjected to SDS-PAGE gel electrophoresis and Coomassie blue staining.

[2] = Body weight gain in mouse model; format: in vivo, mice; conditions: 3 μg/kg oral gavage daily for 4 weeks; compared to PBS control group
Method: Mice at age of 9.5 weeks were randomly divided into 3 groups with 4-5 mice in each group and were subjected to agent treatment. The mice in the control group and test groups were treated with PBS, Amuc_1100 (31-317), or Amuc_1100 (31-317, Y289A) (3 μg/kg) by oral gavage daily for 4 weeks, respectively. The body weight of each mouse in each group was measured twice every week.

[3] = target: T1, TLR2 (Homo sapiens, UniProt O60603); assay: TLR2 reporter gene assay in HEK293 cells (QUANTI-Blue); format: cell-based; design: host or cells: HEK293; conditions: HEK293 cells expressing human TLR2 and reporter gene; FIG. 3B
Method: HEK293 cells expressing human TLR2 receptor and its reporter gene (InvivoGen, hkb-htlr2) were seeded in a 96-well plate and treated by […] (31-317) or mutant recombinant Amuc_1100 (31-317, Y289A). The reporter gene activity was detected by QUANTI-Blue™ (InvivoGen, rep-qbs2), and the cell viability was detected by CellTiterGlo (Promega, G7573) by following the reagent kits' instruction. The results were shown in FIG. 3B (Pam3CSK4 is the positive control for TLR2 ligand). […] All agents show no significant impact on cell viability.

[4] = test system: spontaneous breast cancer in MMTV-PyVT transgenic C57BL/6 female mice; assay: Spontaneous breast cancer model, tumor growth rate and H&E staining; format: in vivo; conditions: Amuc_1100 proteins 3 μg/kg oral gavage daily 4 weeks; anti-PD-1 10 mg/kg i.v. every three days 3 weeks; FIG. 4, FIG. 5
Method: The MMTV-PyVT transgenic C57BL/6 female mice were used to develop spontaneous breast cancer. Mice at age of 9.5 weeks were randomly divided into 6 groups with 4-5 mice in each group and were subjected to agent treatment. The mice in the control group were treated with PBS by oral gavage daily for 4 weeks, plus PBS i.v. injection daily after one week of oral gavage for 3 weeks. […] All the spontaneously developed tumors were monitored. Tumor sizes were measured twice every week. The health status of mice was closely monitored. Tumor growth rate of each tumor in mouse following agent treatment was analyzed. […]

[5] = target: T1, TLR2; assay: TLR2 reporter assay of Amuc_1100 secreted from engineered EcN; format: cell-based; design: expressed in transfected cells; host or cells: HEK293; conditions: HEK293/TLR2 reporter cells, 24 hours, colorimetric; protein isolated from CBT1108 culture media; FIG. 17
Method: The genetically engineered bacteria EcN strain CBT1108 obtained in Example 6 were cultured, and the culture media was collected at late exponential growth stage. The […] (31-317) protein was isolated from the culture media by his-tag antibody-containing resin column. The endotoxin was removed from the isolated Amuc_1100 (31-317) protein.
The Amuc_1100 (31-317) activity was tested by TLR2 reporter assay. Specifically, HEK293/TLR2 reporter cells were stimulated in 96-well plate with certain amount of protein for 24 hours, the reporter enzyme's substrate was added into the cell media and the activity was measured by colorimetric method.

T1 sequence (O60603 21-784): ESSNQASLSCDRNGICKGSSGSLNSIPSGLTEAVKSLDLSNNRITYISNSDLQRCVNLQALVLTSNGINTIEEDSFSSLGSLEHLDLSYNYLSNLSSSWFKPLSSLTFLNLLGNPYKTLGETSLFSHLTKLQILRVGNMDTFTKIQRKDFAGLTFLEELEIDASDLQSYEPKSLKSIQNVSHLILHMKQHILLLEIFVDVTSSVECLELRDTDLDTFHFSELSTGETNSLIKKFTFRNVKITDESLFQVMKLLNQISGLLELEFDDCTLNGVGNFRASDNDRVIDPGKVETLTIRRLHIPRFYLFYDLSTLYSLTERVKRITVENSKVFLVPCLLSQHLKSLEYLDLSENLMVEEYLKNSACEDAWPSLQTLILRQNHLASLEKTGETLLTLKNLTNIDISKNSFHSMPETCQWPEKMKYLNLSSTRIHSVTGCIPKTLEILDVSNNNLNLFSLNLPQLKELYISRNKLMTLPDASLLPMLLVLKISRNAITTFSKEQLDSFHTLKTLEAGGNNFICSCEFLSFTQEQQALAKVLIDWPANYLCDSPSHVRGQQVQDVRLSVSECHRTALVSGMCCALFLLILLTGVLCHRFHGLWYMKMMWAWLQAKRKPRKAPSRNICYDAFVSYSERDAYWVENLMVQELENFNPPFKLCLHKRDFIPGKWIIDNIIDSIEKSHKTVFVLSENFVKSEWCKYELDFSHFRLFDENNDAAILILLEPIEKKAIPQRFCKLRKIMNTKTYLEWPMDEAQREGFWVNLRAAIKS

Molecule	resistance to enzyme digestion [1]	changes in body weights [2]	EC50 for TLR2 activation [3]	tumor growth inhibition [4]	TLR2 signal stimulation [5]
B1	more resistant to enzyme digestion compared to wild type Amuc_1100 protein	no significant changes in body weights	0.951 µg/mL	partially inhibited tumor growth	
B2		no significant changes in body weights	0.535 µg/mL	partially inhibited tumor growth	
B3					stimulated TLR2 signal

From patent US20240091307A1, “COMBINATION THERAPIES OF AMUC_1100 AND IMMUNE CHECKPOINT MODULATORS FOR USE IN TREATING CANCERS” (COMMBIO THERAPEUTICS CO., LTD., priority 2020, published 2024)
